From patent US20110257036A1

Molecular target: BRCA1 protein (mouse) (mouse) (UniProt P48754)
Assay: cell-based or functional assay

UniProt P48754, sequence (P48754 whole entry): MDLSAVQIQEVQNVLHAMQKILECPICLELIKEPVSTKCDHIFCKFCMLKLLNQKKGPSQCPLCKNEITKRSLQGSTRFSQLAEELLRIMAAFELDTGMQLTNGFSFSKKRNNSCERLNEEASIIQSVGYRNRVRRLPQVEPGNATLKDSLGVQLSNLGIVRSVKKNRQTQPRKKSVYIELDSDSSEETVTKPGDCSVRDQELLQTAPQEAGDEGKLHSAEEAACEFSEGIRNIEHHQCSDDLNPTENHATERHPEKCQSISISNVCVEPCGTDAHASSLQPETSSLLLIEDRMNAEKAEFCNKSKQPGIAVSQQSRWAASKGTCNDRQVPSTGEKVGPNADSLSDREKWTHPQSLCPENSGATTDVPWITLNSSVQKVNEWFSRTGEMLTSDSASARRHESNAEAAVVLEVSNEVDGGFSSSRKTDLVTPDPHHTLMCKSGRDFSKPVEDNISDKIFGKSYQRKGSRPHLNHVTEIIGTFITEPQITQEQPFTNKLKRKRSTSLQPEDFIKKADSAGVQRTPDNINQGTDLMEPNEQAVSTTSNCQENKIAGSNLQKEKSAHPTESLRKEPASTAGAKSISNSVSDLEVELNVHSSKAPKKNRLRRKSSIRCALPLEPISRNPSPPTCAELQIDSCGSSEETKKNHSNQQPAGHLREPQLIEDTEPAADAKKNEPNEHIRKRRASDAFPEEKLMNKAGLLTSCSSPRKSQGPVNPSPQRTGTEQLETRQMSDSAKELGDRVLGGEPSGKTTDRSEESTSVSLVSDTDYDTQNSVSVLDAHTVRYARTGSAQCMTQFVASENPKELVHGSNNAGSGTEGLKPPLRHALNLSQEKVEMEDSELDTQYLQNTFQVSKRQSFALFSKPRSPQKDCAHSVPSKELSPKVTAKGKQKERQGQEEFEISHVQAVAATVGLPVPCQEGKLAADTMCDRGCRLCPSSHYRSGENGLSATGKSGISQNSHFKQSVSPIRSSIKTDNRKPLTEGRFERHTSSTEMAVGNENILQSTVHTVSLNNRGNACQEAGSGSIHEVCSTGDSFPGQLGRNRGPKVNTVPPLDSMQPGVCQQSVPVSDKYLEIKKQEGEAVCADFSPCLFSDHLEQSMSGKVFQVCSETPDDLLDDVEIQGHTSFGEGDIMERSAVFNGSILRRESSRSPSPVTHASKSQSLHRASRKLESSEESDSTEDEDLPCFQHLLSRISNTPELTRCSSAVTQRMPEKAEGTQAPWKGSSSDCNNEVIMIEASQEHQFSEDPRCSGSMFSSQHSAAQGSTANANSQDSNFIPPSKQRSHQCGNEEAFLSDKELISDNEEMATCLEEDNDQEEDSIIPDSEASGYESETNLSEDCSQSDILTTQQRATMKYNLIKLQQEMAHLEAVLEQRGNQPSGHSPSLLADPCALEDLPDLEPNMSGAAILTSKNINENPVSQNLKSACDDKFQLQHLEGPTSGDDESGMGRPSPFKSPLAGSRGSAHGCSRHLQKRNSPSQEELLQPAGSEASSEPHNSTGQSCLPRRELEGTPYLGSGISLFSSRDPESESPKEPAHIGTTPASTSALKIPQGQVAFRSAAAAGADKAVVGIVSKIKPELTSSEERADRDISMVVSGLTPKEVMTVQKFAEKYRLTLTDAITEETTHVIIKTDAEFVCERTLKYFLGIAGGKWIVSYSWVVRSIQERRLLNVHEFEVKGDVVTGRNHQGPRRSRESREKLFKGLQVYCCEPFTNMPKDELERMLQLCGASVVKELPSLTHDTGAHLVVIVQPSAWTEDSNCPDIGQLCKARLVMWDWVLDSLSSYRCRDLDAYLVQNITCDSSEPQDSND

co-localization of anti-FANCD2 foci with anti-BRCA1 staining (20 pachytene nuclei): 65%
Substance: FANCD2 protein (mouse) (from UniProt Q80V62 1-1450)
